Source: US20240368668A1, “SUBSTRATES AND BIOMARKERS OF ADAMTS7” (The Broad Institute, Inc., priority 2021, published 2024)
Square brackets hold non-standard residues; d marks the D form. Ends that are not written are not given here.

Target: T1, mouse ADAMTS7 (Mus musculus, UniProt Q68SA9, E373Q)
T1 construct: Full-length mouse Adamts7 1-1857 (Uniprot Q68SA9, WT or E373Q catalytic mutant); expressed in transfected cells; host or cells: Human Coronary Artery Smooth Muscle Cells (HCA-SMC, Lonza), adenovirus 50 MOI
T1 sequence (Q68SA9 221-1657 E373Q): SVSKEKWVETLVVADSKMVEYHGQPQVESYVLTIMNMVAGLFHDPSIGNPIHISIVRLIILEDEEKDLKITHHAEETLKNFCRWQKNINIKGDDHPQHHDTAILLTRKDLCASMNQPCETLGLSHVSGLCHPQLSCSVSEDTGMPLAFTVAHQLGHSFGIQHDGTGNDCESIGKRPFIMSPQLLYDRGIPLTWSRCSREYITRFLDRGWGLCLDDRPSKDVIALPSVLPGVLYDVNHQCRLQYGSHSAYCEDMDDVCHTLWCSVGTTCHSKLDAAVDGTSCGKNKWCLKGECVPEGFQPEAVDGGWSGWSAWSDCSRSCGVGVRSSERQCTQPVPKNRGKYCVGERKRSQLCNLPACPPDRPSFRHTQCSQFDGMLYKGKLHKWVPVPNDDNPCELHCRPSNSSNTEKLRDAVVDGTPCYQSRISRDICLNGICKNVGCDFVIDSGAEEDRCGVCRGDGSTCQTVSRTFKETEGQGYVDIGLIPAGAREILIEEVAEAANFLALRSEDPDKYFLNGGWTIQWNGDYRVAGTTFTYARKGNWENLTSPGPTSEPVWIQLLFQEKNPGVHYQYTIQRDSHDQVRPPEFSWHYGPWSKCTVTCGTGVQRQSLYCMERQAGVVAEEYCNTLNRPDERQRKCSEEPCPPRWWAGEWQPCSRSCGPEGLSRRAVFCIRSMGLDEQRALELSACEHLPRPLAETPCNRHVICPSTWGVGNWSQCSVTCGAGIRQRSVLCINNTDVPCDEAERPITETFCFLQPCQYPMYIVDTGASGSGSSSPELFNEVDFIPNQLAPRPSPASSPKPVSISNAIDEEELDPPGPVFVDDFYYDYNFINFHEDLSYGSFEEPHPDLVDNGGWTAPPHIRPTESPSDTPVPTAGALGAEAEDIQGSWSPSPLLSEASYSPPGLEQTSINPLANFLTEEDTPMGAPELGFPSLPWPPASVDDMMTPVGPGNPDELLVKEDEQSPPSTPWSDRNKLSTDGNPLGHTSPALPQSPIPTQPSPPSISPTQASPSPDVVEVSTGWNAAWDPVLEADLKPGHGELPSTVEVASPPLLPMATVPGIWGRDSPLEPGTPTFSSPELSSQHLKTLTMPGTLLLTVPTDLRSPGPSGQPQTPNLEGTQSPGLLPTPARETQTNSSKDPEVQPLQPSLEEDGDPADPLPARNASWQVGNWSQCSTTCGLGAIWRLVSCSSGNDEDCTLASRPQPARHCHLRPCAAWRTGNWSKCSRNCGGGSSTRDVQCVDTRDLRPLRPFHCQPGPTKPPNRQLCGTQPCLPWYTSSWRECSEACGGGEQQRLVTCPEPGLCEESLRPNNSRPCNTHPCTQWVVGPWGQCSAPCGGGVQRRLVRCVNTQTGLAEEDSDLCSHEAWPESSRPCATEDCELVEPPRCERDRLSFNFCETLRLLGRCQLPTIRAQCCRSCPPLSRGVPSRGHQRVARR
Assay: TMT10 TAILS N-terminomics, SMC2 experiment (process replicates, trypsin/AspN digest)
Type: cell-based
Summary of the method: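 Full-length mouse ADAMTS7 (WT or E373Q mutant, C-terminal 3xFLAG) or luciferase was transduced via adenovirus, 50 MOI, into HCA-SMC (SMC1, SMC2) or HUVEC. SMC1: pooled media, technical triplicates 400 ug; SMC2: process triplicates 300 ug; HUVEC: process triplicates 200 ug, bFGF2 10 ng/ml.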

[1] = SMC2_TAILS HC, log fold change, mEQ over Luc
[2] = SMC2_TAILS HC, log fold change of N-terminal peptide, Ad-mADAMTS7 EQ over Luc
[3] = log fold change, ADAMTS7 EQ over luciferase

Row | logFC.mEQ.over.Luc [1] | logFC.mEQ.over.Luc [3] | Substance | also measured
1 | −0.08 |  | FN1_99 (DKYTGNTYR; listed as Homo sapiens) | 
2 |  |  | VIM_276 (YESVAAKNLQ; listed as Homo sapiens) | logFC.mEQ.over.Luc [2]: 0.06
3 |  | 0.12 | VIM_433 (LVDTHSKR; listed as Homo sapiens) | 
4 |  | −0.19 | QSOX1_558 (VAAAPELAMGALELESR; listed as Homo sapiens) | 
5 | 0.49 |  | EIF4B_426 (QTGTSTTSSR; listed as Homo sapiens) | 
6 | −0.15 |  | FBLN2_665 (FSQVASNTIPLPLPQPNTCK; listed as Homo sapiens) | 
7 | −0.08 |  | CTSB_109 (WAFGAVEAIS; listed as Homo sapiens) | 
8 |  | 1.03 | TG_1017 (GASALLR; listed as Homo sapiens) | 
9 |  | −0.45 | SRGN_62 (GESNKIPR; listed as Homo sapiens) | 
10 | 0.07 |  | FOXG1_235 (LNKCFVKVPRHY; listed as Homo sapiens) | 
11 | 0.25 |  | HEG1_51 (GLELQLER; listed as Homo sapiens) | 
12 | −0.02 |  | ECM1_38 (FQEVGYAAPPSPPLSR; listed as Homo sapiens) | 
13 |  | 0.36 | SPOCK1_126 (HWVGPSNLVK; listed as Homo sapiens) | 
14 | −0.12 |  | EEF1G_23 (QYSGAQVR; listed as Homo sapiens) | 
15 | −0.22 |  | ECM1_108 (QEAVPLQK; listed as Homo sapiens) | 
16 | −0.19 |  | FN1_2113 (FVTHPGY; listed as Homo sapiens) | 
17 | 0.11 |  | APLP2_452 (LVETHLAR; listed as Homo sapiens) | 
18 | −0.09 |  | FN1_35 ([code q]MVQPQSPVAVSQSKPGCY; not fully specified (residue 2); listed as Homo sapiens) | 
19 | 0.11 |  | LOX_125 (FQAGYSTSR; listed as Homo sapiens) | 
20 | −0.34 |  | KRT28_2 (SLQFSNGSR; listed as Homo sapiens) | 
21 |  | −0.69 | SERPINH1_27 (AAAPGTAEKLSPKAATLAER; listed as Homo sapiens) | 
22 | −0.01 |  | CALU_176 (FTAFLHPEEY; listed as Homo sapiens) | 
23 | −0.34 |  | FN1_1780 (LQGLRPGSEYTVSVVALH; listed as Homo sapiens) | 

Row | logFC.mEQ.over.Luc [1] | logFC.mEQ.over.Luc [3] | Substance | also measured
24 | −0.29 |  | ADAM10_86 (FKVETSNKVL; listed as Homo sapiens) | 
25 | −0.34 |  | LOX_60 (LGSQYQPQR; listed as Homo sapiens) | 
26 | 0.00 |  | ACTN4_5 (HAANQSYQYGPSSAGNGAGGGGSMG; listed as Homo sapiens) | 
27 |  | 0.19 | VASN_138 (HIQPGAFDTLDR; listed as Homo sapiens) | 
28 |  | 0.30 | TGFBI_208 (GIVTVNCAR; listed as Homo sapiens) | 
29 |  | −0.08 | VASP_229 (AIAGAKLR; listed as Homo sapiens) | 
30 |  | −0.11 | STC2_239 (HGEAGHHLPEPSSR; listed as Homo sapiens) | 
31 |  |  | ZSCAN4_25 (FQQSQGPAVQR; listed as Homo sapiens) | logFC.mEQ.over.Luc [2]: −0.09
32 | 0.20 |  | EMSY_943 (QTVVQVLAVK; listed as Homo sapiens) | 
33 |  | −0.26 | STC2_244 (HHLPEPSSR; listed as Homo sapiens) | 
34 |  | −0.35 | SDC4_106 (LEENEVIPKR; listed as Homo sapiens) | 
35 |  | 0.32 | SRGN_60 (LPGESNKIPR; listed as Homo sapiens) | 
36 |  | 0.05 | TGFBI_24 (GPAKSPYQLVLQHSR; listed as Homo sapiens) | 
37 |  | 0.14 | SMOC1_35 (LISDRDPQCNLHCSR; listed as Homo sapiens) | 
38 | 0.05 |  | AMER2_654 (LAGTTIRATACH; listed as Homo sapiens) | 
39 | 0.29 |  | HEG1_224 (FQTKSGTAS; listed as Homo sapiens) | 
40 | −1.45 |  | FLNA_689 (VNKPAEFTV; listed as Homo sapiens) | 
41 |  | 0.09 | TGFBI_534 (EGVYTVFAPTNEAFR; listed as Homo sapiens) | 
42 |  | 0.09 | TGFBI_276 (TLLAPT[code n]EAFEKIPSETLNR; not fully specified; listed as Homo sapiens) | 
43 | −0.28 |  | ECM1_44 (AAPPSPPLSR; listed as Homo sapiens) | 
44 |  |  | VIM_322 (QVQSLTCEV; listed as Homo sapiens) | logFC.mEQ.over.Luc [2]: −0.10
45 | 0.71 |  | FN1_1805 (LIGTQSTAIPAPT; listed as Homo sapiens) | 
46 | −0.11 |  | CCL2_28 (INAPVTCCYNFTNR; listed as Homo sapiens) | 

Row | logFC.mEQ.over.Luc [1] | logFC.mEQ.over.Luc [3] | Substance | also measured
47 | −0.02 |  | DIS3L_75 (FPELKGIIFMQTACQAVQHQR; listed as Homo sapiens) | 
48 | −0.07 |  | FN1_1693 (LQPTVEYVVSVYAQNPSG; listed as Homo sapiens) | 
49 |  | 0.33 | TGFBI_50 (AVQKVIGTNR; listed as Homo sapiens) | 
50 | −0.06 |  | BMPER_43 (LTGSVAKCENEG; listed as Homo sapiens) | 
51 |  | −0.04 | THBS1_972 (QNDPNWVVR; listed as Homo sapiens) | 
52 |  | 0.14 | TGFBI_497 (VLTPPMGTVMDVLKGDNR; not fully specified (residue 6); listed as Homo sapiens) | 
53 | −0.31 |  | ACTG1_105 (LTEAPLNPKANR; listed as Homo sapiens) | 
54 | 0.09 |  | CAP1_300 (FSAPKPQTSPSPKR; listed as Homo sapiens) | 
55 | 4.60 |  | ADNP2_375 (SQPVGPVNK; listed as Homo sapiens) | 
56 | −0.06 |  | FLNC_2649 (FVGQKNSFTV; listed as Homo sapiens) | 
57 |  |  | VCAN_3367 (FKNSSSAK; listed as Homo sapiens) | logFC.mEQ.over.Luc [2]: −0.72
58 |  | −0.07 | SRGN_50 (LEEKGPMFELLPGESNKIPR; listed as Homo sapiens) | 
59 |  | −0.13 | SRGN_51 (EEKGPMFELLPGESNKIPR; listed as Homo sapiens) | 
60 | −0.18 |  | ADAM9_74 (GKEHIIHLER; listed as Homo sapiens) | 
61 |  | −0.22 | STC1_37 (QNSAEVVR; listed as Homo sapiens) | 
62 |  | 0.10 | TGFBI_43 ([code q]HGPNVCAVQKVIGTNR; not fully specified; listed as Homo sapiens) | 
63 | −0.19 |  | LOXL1_157 (SVSASAFASTYR; listed as Homo sapiens) | 
64 |  | −0.17 | TLN1_1501 (HTSALCNSCR; listed as Homo sapiens) | 
65 | 0.03 |  | DBN1_434 (APVEPATA; listed as Homo sapiens) | 
66 | −0.07 |  | APOA1_86 (EQLGPVTQEFW; listed as Homo sapiens) | 
67 | −0.62 |  | CEP192_728 (DKSTAGR; listed as Homo sapiens) | 
68 | −0.14 |  | KCND1_436 (RLAKSGTTNAFLQYKQNGGLE; listed as Homo sapiens) | 

Row | Substance | logFC.mEQ.over.Luc [1] | logFC.mEQ.over.Luc [3] | also measured
69 | FSTL_1290 (LQKHQETA; listed as Homo sapiens) | −0.28 |  | 
70 | FN1_607 (SSSGPVEVFIT; listed as Homo sapiens) | 0.45 |  | 
